# pIC50: −log10 of the molar value.
# What was measured:
# [1] = target: SARS-CoV-2 spike (S) protein (SARS-CoV-2) (UniProt P0DTC2)
# [2] = target: SARS-CoV-2 spike (S) protein (SARS-CoV-2) (UniProt P0DTC2); remark: listed apart in the source
# [3] = target: SARS-CoV-2 S protein (RBD) (SARS-CoV-2) (UniProt P0DTC2); test: ELISA; competitive inhibition ELISA: 1 μg/ml ACE2 coated in 0.01 M Tris pH 8.8; S (RBD) 1 μg/ml pre-incubated with HP-OVA or unmodified OVA at the indicated concentrations was added; antibody detection, absorbance at 450 nm
# [4] = target: SARS-CoV-2 spike (S) protein (SARS-CoV-2) (UniProt P0DTC2); remark: listed apart in the source
substance,measurement,setting,value
3-hydroxyphthalic anhydride-modified chicken ovalbumin (from UniProt P01012 1-386),IC50 of inhibition of S-mediated cell-cell fusion of 293T/SARS-CoV-2/EGFP and Huh 7 cells; blocks S with ACE2,[1],1.54 µM
same,IC50 of inhibition of S-mediated cell-cell fusion of 293T/SARS-CoV-2/EGFP and Vero E6 cells; blocks S with ACE2,[1],1.74 µM
same,IC50 of inhibition of SARS-CoV-2 S pseudovirus entry into 293T/ACE2 cells (luciferase); blocks S with ACE2,[2],0.7 µM
same,IC50 of inhibition of SARS-CoV-2 S pseudovirus entry into Vero E6 cells (luciferase); blocks S with ACE2,[2],1.21 µM
same,pIC50,[3],4.75
same,IC50 against live SARS-CoV-2 in Vero E6 cells (CPE assay); blocks S with ACE2,[4],4.78 µM
same,IC90 against live SARS-CoV-2 in Vero E6 cells (CPE assay); blocks S with ACE2,[4],12.2 µM

# Source: publication PMC7840605
